Source: PMC10825690 (2023)

Biological target: acetylated bovine serum albumin (AcBSA) (Bos taurus, UniProt P02769)
Assay: microscale thermophoresis

Chain of acetylated bovine serum albumin (AcBSA) (P02769 25-607): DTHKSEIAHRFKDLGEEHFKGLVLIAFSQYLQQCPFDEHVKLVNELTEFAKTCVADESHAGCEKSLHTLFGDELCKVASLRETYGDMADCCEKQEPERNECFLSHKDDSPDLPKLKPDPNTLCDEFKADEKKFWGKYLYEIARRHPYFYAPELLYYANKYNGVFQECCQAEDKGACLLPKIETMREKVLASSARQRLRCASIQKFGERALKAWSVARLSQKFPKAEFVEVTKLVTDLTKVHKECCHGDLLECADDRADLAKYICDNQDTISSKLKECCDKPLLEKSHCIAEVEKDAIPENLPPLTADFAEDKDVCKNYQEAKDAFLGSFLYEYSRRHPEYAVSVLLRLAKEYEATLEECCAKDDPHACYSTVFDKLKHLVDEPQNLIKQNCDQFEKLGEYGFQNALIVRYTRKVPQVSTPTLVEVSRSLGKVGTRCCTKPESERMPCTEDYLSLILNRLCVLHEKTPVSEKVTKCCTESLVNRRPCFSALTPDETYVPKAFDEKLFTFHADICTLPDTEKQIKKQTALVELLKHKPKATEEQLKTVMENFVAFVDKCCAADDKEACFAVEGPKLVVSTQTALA

Kd: 53 nM
B1: FIBCD1 236-461 (protein)
chain: ATGSRPRDCLDVLLSGQQDDGVYSVFPTHYPAGFQVYCDMRTDGGGWTVFQRREDGSVNFFRGWDAYRDGFGRLTGEHWLGLKRIHALTTQAAYELHVDLEDFENGTAYARYGSFGVGLFSVDPEEDGYPLTVADYSGTAGDSLLKHSGMRFTTKDRDSDHSENNCAAFYRGAWWYRNCHTSNLNGQYLRGAHASYADGVEWSSWTGWQYSLKFSEMKIRPVREDR
modifications: acetylated BSA, RED-NHS labeled FIBCD1, calcium
